B1: Hammerhead Ribozyme (parent)
chain: ACCGGAUGUGCUUUCCGGUCUGAUGAGUCCGUGAGGACGAAACAG

Variants of: B1
Assay: self-cleavage, relative activity (ratio to wild type); higher = more cleavage; co-transcriptional

Variant | self-cleavage
C2U C38A | 0.854
C2U C38U | 1.21
C2U C38G | 0.976
C2U C11G | 1.5
C2U C11A | 1.46
C2U C11U | 0.739
C2G U32G | 0.379
C2G U32C | 0.332
C2G U32A | 0.418
C2U A44G | 1.55
C2U A44U | 0.646
C2U A44C | 0.664
C2G G27U | 0.327
C2G G27A | 0.282
C2G G27C | 0.303
C2U U21A | 0.962
C2U U21C | 0.273
C2U U21G | 0.742
C2U A37G | 1.01
C2U A37U | 0.849
C2U A37C | 0.782
C2U G39A | 0.376
C2U G39U | 0.359
C2U G39C | 0.336

Variant | self-cleavage
C2A U7C | 0.382
C2A U7A | 0.457
C2A U7G | 0.518
C2G G31C | 0.376
C2G G31U | 0.503
C2G G31A | 0.43
C2A U24G | 0.644
C2A U24A | 0.929
C2A U24C | 0.733
C2U G27C | 0.654
C2U G27U | 0.568
C2U G27A | 1.06
C2U A6U | 0.865
C2U A6G | 0.927
C2U A6C | 0.429
C2U U13A | 1.52
C2U U13C | 1.34
C2U U13G | 1.24
C2U U32C | 0.971
C2U U32G | 1.04
C2U U32A | 0.97
C2G A42C | 0.32
C2G A42G | 0.273
C2G A42U | 0.292

Variant | self-cleavage
C2U G4C | 0.397
C2U G4U | 0.335
C2U G4A | 0.361
C2G C30A | 0.374
C2G C30G | 0.237
C2G C30U | 0.354
C2G G10A | 0.383
C2G G10U | 0.379
C2G G10C | 0.38
C3A | 0.772
C2A G27U | 0.32
C2A G27A | 0.438
C2A G27C | 0.339
C2U G33A | 1.14
C2U G33C | 1.06
C2U G33U | 1.17
C3A A40G | 0.353
C3A A40U | 0.278
C3A A40C | 0.324
C2G G35U | 0.272
C2G G35A | 0.271
C2G G35C | 0.339
C2U A23U | 0.415
C2U A23G | 0.385

Variant | self-cleavage
C2U A23C | 0.558
C2U A34G | 0.841
C2U A34U | 0.972
C2U A34C | 0.933
C2G C29G | 0.354
C2G C29A | 0.311
C2G C29U | 0.365
C2G C15U | 0.304
C2G C15G | 0.29
C2G C15A | 0.302
C2G A41U | 0.293
C2G A41G | 0.369
C2G A41C | 0.271
C2G G33A | 0.463
C2G G33U | 0.535
C2G G33C | 0.443
C2G U21C | 0.329
C2G U21G | 0.331
C2G U21A | 0.314
C2A G45A | 0.393
C2A G45C | 0.42
C2A G45U | 0.417
C2A G36C | 0.307
C2A G36U | 0.341

Variant | self-cleavage
C2A G36A | 0.353
C3A A34C | 0.359
C3A A34U | 0.358
C3A A34G | 0.515
C2G A23G | 0.318
C2G A23C | 0.294
C2G A23U | 0.321
C3A A26C | 0.292
C3A A26U | 0.399
C3A A26G | 0.253
C2G G22U | 0.312
C2G G22C | 0.296
C2G G22A | 0.292
C2A U9G | 0.44
C2A U9A | 0.563
C2A U9C | 0.695
C2A U32C | 0.632
C2A U32G | 0.469
C2A U32A | 0.784
C2U C20A | 0.63
C2U C20U | 0.797
C2U C20G | 0.37
C2U C29A | 0.701
C2U C29U | 1.29

Variant | self-cleavage
C2U C29G | 1.02
C2G U9C | 0.357
C2G U9G | 0.32
C2G U9A | 0.367
C2G C16G | 0.294
C2G C16A | 0.335
C2G C16U | 0.299
C2U G31A | 1.11
C2U G31C | 0.974
C2U G31U | 1.12
C2G G8C | 0.302
C2G G8A | 0.385
C2G G8U | 0.387
C2G A6G | 0.292
C2G A6U | 0.321
C2G A6C | 0.196
C2U A40C | 0.51
C2U A40U | 0.346
C2U A40G | 0.284
C3A A41C | 0.299
C2A U12G | 0.736
C2A U12C | 0.5
C2A U12A | 0.62
C2G A37G | 0.351

Variant | self-cleavage
C2G A37U | 0.293
C2G A37C | 0.311
C2U U24G | 1.29
C2U U24C | 1.35
C2U U24A | 1.05
C2G U13C | 0.4
C2G U13G | 0.332
C2G U13A | 0.353
C2G G45C | 0.331
C2G G45U | 0.335
C2G G45A | 0.349
C2G G5U | 0.296
C2G G5A | 0.295
C2G G5C | 0.309
C2U C43G | 0.372
C2U C43U | 0.441
C2U C43A | 0.361
C2U G5A | 0.633
C2U G5C | 0.364
C2U G5U | 0.535
C2A G31C | 0.66
C2A G31U | 0.828
C2A G31A | 0.969

— the RNAGym collection of RNA variant scans (doi:10.7554/elife.80360)
